Experimental data: patent publication US20140249045

Target: T1, RagD GTPase as used in the in vitro GTPase assay, Q9NQL2
T1 chain: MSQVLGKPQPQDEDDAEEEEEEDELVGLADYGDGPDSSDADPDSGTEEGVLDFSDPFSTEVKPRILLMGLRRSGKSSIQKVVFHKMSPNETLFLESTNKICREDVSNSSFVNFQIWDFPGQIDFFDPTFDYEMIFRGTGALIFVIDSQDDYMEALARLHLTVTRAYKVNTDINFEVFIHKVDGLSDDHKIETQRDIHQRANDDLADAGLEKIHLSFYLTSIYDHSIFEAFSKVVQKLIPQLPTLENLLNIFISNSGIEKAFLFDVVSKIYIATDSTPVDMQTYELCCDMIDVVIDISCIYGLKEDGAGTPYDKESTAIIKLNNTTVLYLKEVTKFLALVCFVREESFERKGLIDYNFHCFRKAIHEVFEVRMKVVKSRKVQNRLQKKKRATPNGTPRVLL

| Protein | GTP hydrolysis by RagD GTPase (in vitro GTPase assay) | GAP activity on RagD (in vitro GTPase assay) |
| --- | --- | --- |
| His-LRS-(759-1176) (protein) MADAGILRLYTWVEWVKEMVANWDSLRSGPASTFNDRVFASELNAGIIKTDQNYEKMMFKEALKTGFFEFQAAKDKYRELAVEGMHRELVFRFIEVQTLLLAPFCPHLCEHIWTLLGKPDSIMNASWPVAGPVNEVLIHSSQYLMEVTHDLRLRLKNYMMPAKGKKTDKQPLQKPSHCTIYVAKNYPPWQHTTLSVLRKHFEANNGKLPDNKVIASELGSMPELKKYMKKVMPFVAMIKENLEKMGPRILDLQLEFDEKAVLMENIVYLTNSLELEHIEVKFASEAEDKIREDCCPGKPLNVFRIEPGVSVSLVNPQPSNGHFSTKIEIRQGDNCDSIIRRLMKMNRGIKDLSKVKLMRFDDPLLGPRRVPVLGKEYTEKTPISEHAVFNVDLMSKKIHLTENGIRVDIGDTIIYLVH | addition of WT LRS fragment (759-1176 a.a) enhanced GTP hydrolysis by RagD GTPase in dose- and time-dependent manner | – |
| LRS (759-1176 a.a) fragment H844A (protein) MADAGILRLYTWVEWVKEMVANWDSLRSGPASTFNDRVFASELNAGIIKTDQNYEKMMFKEALKTGFFEFQAAKDKYRELAVEGMARELVFRFIEVQTLLLAPFCPHLCEHIWTLLGKPDSIMNASWPVAGPVNEVLIHSSQYLMEVTHDLRLRLKNYMMPAKGKKTDKQPLQKPSHCTIYVAKNYPPWQHTTLSVLRKHFEANNGKLPDNKVIASELGSMPELKKYMKKVMPFVAMIKENLEKMGPRILDLQLEFDEKAVLMENIVYLTNSLELEHIEVKFASEAEDKIREDCCPGKPLNVFRIEPGVSVSLVNPQPSNGHFSTKIEIRQGDNCDSIIRRLMKMNRGIKDLSKVKLMRFDDPLLGPRRVPVLGKEYTEKTPISEHAVFNVDLMSKKIHLTENGIRVDIGDTIIYLVH | – | H844A and R845A mutants lost their GAP activity while WT LRS showed GAP activity |
| LRS (759-1176 a.a) fragment R845A (protein) MADAGILRLYTWVEWVKEMVANWDSLRSGPASTFNDRVFASELNAGIIKTDQNYEKMMFKEALKTGFFEFQAAKDKYRELAVEGMHAELVFRFIEVQTLLLAPFCPHLCEHIWTLLGKPDSIMNASWPVAGPVNEVLIHSSQYLMEVTHDLRLRLKNYMMPAKGKKTDKQPLQKPSHCTIYVAKNYPPWQHTTLSVLRKHFEANNGKLPDNKVIASELGSMPELKKYMKKVMPFVAMIKENLEKMGPRILDLQLEFDEKAVLMENIVYLTNSLELEHIEVKFASEAEDKIREDCCPGKPLNVFRIEPGVSVSLVNPQPSNGHFSTKIEIRQGDNCDSIIRRLMKMNRGIKDLSKVKLMRFDDPLLGPRRVPVLGKEYTEKTPISEHAVFNVDLMSKKIHLTENGIRVDIGDTIIYLVH | – | H844A and R845A mutants lost their GAP activity while WT LRS showed GAP activity |
